Source: patent US12448423 (Xencor, dated 2025)

B1: KYK-1.0 (anti-NKG2D antigen binding domain) (antibody, V domains shown)
VH: EVQLVESGGGVVQPGGSLRLSCAASGFTFSSYGMHWVRQAPGKGLEWVAFIRYDGSNKYYADSVKGRFTISRDNSKNTKYLQMNSLRAEDTAVYYCAKDRFGYYLDYWGQGTLVTVSS
VL: QPVLTQPSSVSVAPGETARIPCGGDDIETKSVHWYQQKPGQAPVLVIYDDDDRPSGIPERFFGSNSGNTATLSISRVEAGDEADYYCQVWDDNNDEWVFGGGTQLTVL
notes: also called KYK-1.0[NKG2D]_H1L1
B2: humanized OKT8 variant (H2L1) (antibody)
heavy: QVQLVQSGAEVKKPGASVKVSCKASGFNIKDTYIHWVRQAPGKGLEWMGRIDPANDNTLYASKFQGRVTITADTSINTAYMELSRLRSDDTAVYYCGRGYGYYVFDHWGQGTTVTVSSASTKGPSVFPLAPSSKSTSGGTAALGCLVKDYFPEPVTVSWNSGALTSGVHTFPAVLQSSGLYSLSSVVTVPSSSLGTQTYICNVNHKPSNTKVDKKVEPKSCDKTHTCPPCPAPPVAGPSVFLFPPKPKDTLMISRTPEVTCVVVDVKHEDPEVKFNWYVDGVEVHNAKTKPREEQYNSTYRVVSVLTVLHQDWLNGKEYKCKVSNKALPAPIEKTISKAKGQPREPQVYTLPPSREQMTKNQVKLTCLVKGFYPSDIAVEWESNGQPENNYKTTPPVLDSDGSFFLYSKLTVDKSRWQQGNVFSCSVMHEALHNHYTQKSLSLSPGK
light: DIKMTQSPSSLSASVGDRVTITCRTSRSISQYLAWYQEKPGKTNKLLIYSGSTLQSGIPSRFSGSGSGTDFTLTISSLQPEDFATYYCQQHNENPLTFGAGTKLEIKRTVAAPSVFIFPPSDEQLKSGTASVVCLLNNFYPREAKVQWKVDNALQSGNSQESVTEQDSKDSTYSLSSTLTLSKADYEKHKVYACEVTHQGLSSPVTKSFNRGEC
Fc: EPKSSDKTHTCPPCPAPPVAGPSVFLFPPKPKDTLMISRTPEVTCVVVDVKHEDPEVKFNWYVDGVEVHNAKTKPREEEYNSTYRVVSVLTVLHQDWLNGKEYKCKVSNKALPAPIEKTISKAKGQPREPQVYTLPPSREEMTKNQVSLTCDVSGFYPSDIAVEWESDGQPENNYKTTPPVLDSDGSFFLYSKLTVDKSRWEQGDVFSCSVMHEALHNHYTQKSLSLSPGK
notes: also called OKT8_H2L1

Experiments:
[1] = biological target: T1, NKG2D (affinity ladder and epitope binning; construct not stated) (UniProt P26718 73-216, limits assumed); experiment: affinity ladder; method and format not stated
T1 sequence (looked up): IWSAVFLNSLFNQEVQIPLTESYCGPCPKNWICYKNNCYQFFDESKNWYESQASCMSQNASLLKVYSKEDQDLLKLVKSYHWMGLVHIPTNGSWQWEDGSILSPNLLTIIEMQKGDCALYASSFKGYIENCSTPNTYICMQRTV

[2] = biological target: T2, cynomolgus CD8 (captured on the Octet biosensor) (cynomolgus); experiment: Octet (BLI); cynomolgus CD8 captured, dipped into multiple concentrations of the one-arm mAb
T2 construct: Construct not described; also called cyno CD8; cyno CD8a

[3] = biological target: T3, human CD8 (captured on the Octet biosensor) (human, UniProt P01732 22-182, limits assumed); experiment: Octet (BLI); human CD8 captured, dipped into multiple concentrations of the one-arm mAb
T3 construct: Construct not described; also called recombinant human CD8a

[4] = biological target: T2, cynomolgus CD8 (captured on the Octet …); experiment: method not stated in the sentence (Octet in the same example)

T3 sequence (P01732 22-182 limits assumed): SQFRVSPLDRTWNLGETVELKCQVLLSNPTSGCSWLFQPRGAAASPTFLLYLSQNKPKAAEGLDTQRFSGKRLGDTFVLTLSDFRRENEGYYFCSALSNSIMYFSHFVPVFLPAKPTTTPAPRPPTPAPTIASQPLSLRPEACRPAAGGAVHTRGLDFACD

| Binder | Kd [1] | Kd [2] | koff [2] | kon [2] | Kd [3] | koff [3] | kon [3] | Kd [4] |
| --- | --- | --- | --- | --- | --- | --- | --- | --- |
| B1 | 0.17 µM | – | – | – | – | – | – | – |
| B2 | – | 0.202 µM | 0.0699 s⁻¹ | 347000 M⁻¹ s⁻¹ | 0.012 µM | 0.006 s⁻¹ | 500000 M⁻¹ s⁻¹ | 0.2 µM |
